This note sets out measurements from paper PMC11947305 (Nature Communications, 2025).

The labels stand for the following.
T1: GST-tagged human HPS4 (residues 1-708) (human, UniProt Q9NQG7 1-708)
T1 sequence: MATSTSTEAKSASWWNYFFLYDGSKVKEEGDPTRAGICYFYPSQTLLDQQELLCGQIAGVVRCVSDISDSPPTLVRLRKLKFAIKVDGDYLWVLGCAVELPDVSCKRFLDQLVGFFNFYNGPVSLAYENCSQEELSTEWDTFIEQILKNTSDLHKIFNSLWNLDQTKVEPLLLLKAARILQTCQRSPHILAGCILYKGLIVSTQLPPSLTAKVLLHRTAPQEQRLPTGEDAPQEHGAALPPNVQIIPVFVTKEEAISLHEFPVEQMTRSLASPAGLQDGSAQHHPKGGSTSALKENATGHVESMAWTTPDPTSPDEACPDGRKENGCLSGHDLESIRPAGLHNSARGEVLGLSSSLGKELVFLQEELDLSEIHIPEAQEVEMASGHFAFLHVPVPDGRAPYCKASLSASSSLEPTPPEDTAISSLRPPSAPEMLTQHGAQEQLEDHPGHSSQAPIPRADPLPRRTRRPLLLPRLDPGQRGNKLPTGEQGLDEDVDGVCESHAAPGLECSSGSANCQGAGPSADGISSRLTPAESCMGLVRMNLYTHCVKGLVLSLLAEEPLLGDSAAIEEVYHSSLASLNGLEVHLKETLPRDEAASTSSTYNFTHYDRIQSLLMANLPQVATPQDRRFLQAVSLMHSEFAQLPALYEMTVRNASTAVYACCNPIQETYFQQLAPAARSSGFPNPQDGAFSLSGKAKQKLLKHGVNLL

T2: Flag-tagged HPS4 wild-type (human, UniProt Q9NQG7 1-708)
T2 sequence: T1 sequence

B1: HPS1 (untagged human HPS1, residues 1-700) (natural protein)
chain: MKCVLVATEGAEVLFYWTDQEFEESLRLKFGQSENEEEELPALEDQLSTLLAPVIISSMTMLEKLSDTYTCFSTENGNFLYVLHLFGECLFIAINGDHTESEGDLRRKLYVLKYLFEVHFGLVTVDGHLIRKELRPPDLAQRVQLWEHFQSLLWTYSRLREQEQCFAVEALERLIHPQLCELCIEALERHVIQAVNTSPERGGEEALHAFLLVHSKLLAFYSSHSASSLRPADLLALILLVQDLYPSESTAEDDIQPSPRRARSSQNIPVQQAWSPHSTGPTGGSSAETETDSFSLPEEYFTPAPSPGDQSSGSTIWLEGGTPPMDALQIAEDTLQTLVPHCPVPSGPRRIFLDANVKESYCPLVPHTMYCLPLWQGINLVLLTRSPSAPLALVLSQLMDGFSMLEKKLKEGPEPGASLRSQPLVGDLRQRMDKFVKNRGAQEIQSTWLEFKAKAFSKSEPGSSWELLQACGKLKRQLCAIYRLNFLTTAPSRGGPHLPQHLQDQVQRLMREKLTDWKDFLLVKSRRNITMVSYLEDFPGLVHFIYVDRTTGQMVAPSLNCSQKTSSELGKGPLAAFVKTKVWSLIQLARRYLQKGYTTLLFQEGDFYCSYFLWFENDMGYKLQMIEVPVLSDDSVPIGMLGGDYYRKLLRYYSKNRPTEAVRCYELLALHLSVIPTDLLVQQAGQLARRLWEASRIPLL
B2: GST-tagged human HPS4 Δ289-518 (natural protein)
chain: MATSTSTEAKSASWWNYFFLYDGSKVKEEGDPTRAGICYFYPSQTLLDQQELLCGQIAGVVRCVSDISDSPPTLVRLRKLKFAIKVDGDYLWVLGCAVELPDVSCKRFLDQLVGFFNFYNGPVSLAYENCSQEELSTEWDTFIEQILKNTSDLHKIFNSLWNLDQTKVEPLLLLKAARILQTCQRSPHILAGCILYKGLIVSTQLPPSLTAKVLLHRTAPQEQRLPTGEDAPQEHGAALPPNVQIIPVFVTKEEAISLHEFPVEQMTRSLASPAGLQDGSAQHHPKGGGPSADGISSRLTPAESCMGLVRMNLYTHCVKGLVLSLLAEEPLLGDSAAIEEVYHSSLASLNGLEVHLKETLPRDEAASTSSTYNFTHYDRIQSLLMANLPQVATPQDRRFLQAVSLMHSEFAQLPALYEMTVRNASTAVYACCNPIQETYFQQLAPAARSSGFPNPQDGAFSLSGKAKQKLLKHGVNLL
B3: His-tagged mouse Rab9A Q66L (residues 2-199) (natural protein)
chain: AGKSSLFKIILLGDGGVGKSSLMNRYVTNKFDSQLFHTIGVEFLNKDLEVDGHFVTMQIWDTAGLERFRSLRTPFYRGSDCCLLTFSVDDSQSFQNLSNWKKEFIYYADVKEPESFPFVILGNKTDIKERQVSTEEAQAWCKDNGDYPYFETSAKDSTNVAAAFEEAVRRILATEDRSEHLIQTDTVNLHRKPKPNSS

Assay [1] addresses B2. In words: SEC. On the technique in general: SEC sorts molecules by how far they enter the pores of the column.
Assay [2] concerns the target T1, GST-tagged human HPS4 (residues 1-708). Description: SEC.
Assay [3] concerns the target B1. In words: cryo-EM structure.
Assay [4] has as its target T2, Flag-tagged HPS4 wild-type. Description: pull-down.

A word on the stoichiometry N: it is the number of molecules, sites or subunits per partner or assembly.

On to B1, for which, in assay [1], the “stoichiometry N” value was determined as 1. The binding result in assay [2] was “binds”.

With B2, the binding result in assay [3] is on record as “binds”.

B3: the binding result in assay [4] is “binds”.
